Paper PMC2141740 (The Journal of Cell Biology, 1998)

Target: T1, HA-tagged human TGF-β type I receptor (TβRI-HA) (human, UniProt P36897 34-503)
T1 sequence (looked up): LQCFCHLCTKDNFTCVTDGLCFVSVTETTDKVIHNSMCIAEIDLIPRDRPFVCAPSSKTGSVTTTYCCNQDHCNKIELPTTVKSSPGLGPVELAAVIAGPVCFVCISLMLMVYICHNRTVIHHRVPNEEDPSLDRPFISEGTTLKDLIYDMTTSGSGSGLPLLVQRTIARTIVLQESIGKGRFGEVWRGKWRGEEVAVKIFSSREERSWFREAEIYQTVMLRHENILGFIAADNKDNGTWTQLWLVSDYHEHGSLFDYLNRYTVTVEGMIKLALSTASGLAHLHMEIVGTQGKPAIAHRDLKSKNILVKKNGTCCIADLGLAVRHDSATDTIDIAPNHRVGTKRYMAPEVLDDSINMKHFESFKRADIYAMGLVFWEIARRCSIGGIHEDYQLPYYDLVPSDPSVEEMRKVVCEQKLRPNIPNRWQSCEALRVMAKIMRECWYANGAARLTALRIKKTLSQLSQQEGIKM
Assay: antibody-mediated immunofluorescence copatching

B1: myc-tagged human TGF-β type I receptor (TβRI-myc) (receptor, UniProt P36897 34-503, looked up)
chain: T1 sequence (looked up)
  stoichiometry N: 2
